Assay results: the supplement of paper PMC10567573

B1: C2CD2L (parent)
chain: EPAGSLRELGVWRSLLRLRATRAG

Variants of: B1
Test: protein stability index of a GFP-peptide fusion (GPS, HEK-293T) (PSI 1-6); higher = more stable
Settings: c terminus: a fixed tail appended
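Further: lentivirally expressed fusions sorted by FACS into six bins by GFP to DsRed ratio, PSI derived from sequencing read proportions per bin multiplied by bin number.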

Row | Variant | protein stability index
1 | EPAGSLRELGVWRSLLRLRMTRAG [A20M] | 2.48
2 | EPAGSLRELGVWRSLLRLRHTRAG [A20H] | 2.67
3 | EPAGSLRELGVWRSLLRLRETRAG [A20E] | 3
4 | EPAGSLRELGVWRSLLRLRPTRAG [A20P] | 3.18
5 | EPAGSLRELGVWRSLLRLRQTRAG [A20Q] | 2.04
6 | EPAGSLRELGVWRSLLRLRDTRAG [A20D] | 3.34
7 | EPAGSLRELGVWRSLLRLRTTRAG [A20T] | 1.85
8 | EPAGSLRELGVWRSLLRLRSTRAG [A20S] | 1.94
9 | EPAGSLRELGVWRSLLRLRLTRAG [A20L] | 2.58
10 | EPAGSLRELGVWRSLLRLRATRAA [G24A] | 2.89
11 | EPAGSLRELGVWRSLLRLRATRAY [G24Y] | 1.99
12 | EPAGSLRELGVWRSLLRLRATRAI [G24I] | 1.97
13 | EPAGSLRELGVWRSLLRLRATRAN [G24N] | 1.91
14 | EPAGSLRELGVWRSLLRLRATRAL [G24L] | 2.87
15 | EPAGSLRELGVWRSLLRLRATRAP [G24P] | 1.96
16 | EPAGSLRELGVWRSLLRLRATRAV [G24V] | 2.25
17 | EPAGSLRELGVWRSLLRLRATRAD [G24D] | 2.66
18 | EPAGSLRELGVWRSLLRLRATRAF [G24F] | 2.11
19 | EPAGSLRELGVWRSLLRLRATRAC [G24C] | 2.99
20 | EPAGSLRELGVWRSLLRLRATRAW [G24W] | 3.29
21 | EPAGSLRELGVWRSLLRLRATRAQ [G24Q] | 2.77
22 | EPAGSLRELGVWRSLLRLVATRAG [R19V] | 2.31
23 | EPAGSLRELGVWRSLLRLYATRAG [R19Y] | 1.48
24 | EPAGSLRELGVWRSLLRLSATRAG [R19S] | 3.27

Row | Variant | protein stability index
25 | EPAGSLRELGVWRSLLRLDATRAG [R19D] | 2.73
26 | EPAGSLRELGVWRSLLRLLATRAG [R19L] | 2.95
27 | EPAGSLRELGVWRSLLRLKATRAG [R19K] | 2.99
28 | EPAGSLRELGVWRSLLRLIATRAG [R19I] | 2.24
29 | EPAGSLRELGVWRSLLRLQATRAG [R19Q] | 1.98
30 | EPAGSLRELGVWRSLLRLWATRAG [R19W] | 2.22
31 | EPAGSLRELGVWRSLLRLHATRAG [R19H] | 1.85
32 | EPAGSLRELGVWRSLLRLTATRAG [R19T] | 2.91
33 | EPAGSLRELGVWRSLLRLMATRAG [R19M] | 2.2
34 | EPAGSLRELGVWRSMLRLRATRAG [L15M] | 2.48
35 | EPAGSLRELGVWRSDLRLRATRAG [L15D] | 3.67
36 | EPAGSLRELGVWRSELRLRATRAG [L15E] | 4.27
37 | EPAGSLRELGVWRSNLRLRATRAG [L15N] | 3.47
38 | EPAGSLRELGVWRSKLRLRATRAG [L15K] | 2.96
39 | EPAGSLRELGVWRSPLRLRATRAG [L15P] | 3.76
40 | EPAGSLRELGVWRSTLRLRATRAG [L15T] | 2.5
41 | EPAGSLRELGVWRSQLRLRATRAG [L15Q] | 3.84
42 | EPAGSLRELGVWRSGLRLRATRAG [L15G] | 3.51
43 | EPAGSLRELGVWRSLLRRRATRAG [L18R] | 3.54
44 | EPAGSLRELGVWRSLLRPRATRAG [L18P] | 3.97
45 | EPAGSLRELGVWRSLLRSRATRAG [L18S] | 3.53
46 | EPAGSLRELGVWRSLLRDRATRAG [L18D] | 2.64
47 | EPAGSLRELGVWRSLLRCRATRAG [L18C] | 2.67
48 | EPAGSLRELGVWRSLLRWRATRAG [L18W] | 1.53

Row | Variant | protein stability index
49 | EPAGSLRELGVWRSLLRARATRAG [L18A] | 3.73
50 | EPAGSLRELGVWRSLLRFRATRAG [L18F] | 2.07
51 | EPAGSLRELGVWRSLLRIRATRAG [L18I] | 2.65
52 | EPAGSLRELGVWRSLKRLRATRAG [L16K] | 3.56
53 | EPAGSLRELGVWRSLYRLRATRAG [L16Y] | 2.3
54 | EPAGSLRELGVWRSLRRLRATRAG [L16R] | 2.57
55 | EPAGSLRELGVWRSLGRLRATRAG [L16G] | 3.32
56 | EPAGSLRELGVWRSLTRLRATRAG [L16T] | 2.74
57 | EPAGSLRELGVWRSLIRLRATRAG [L16I] | 2.36
58 | EPAGSLRELGVWRSLPRLRATRAG [L16P] | 4.09
59 | EPAGSLRELGVWRSLFRLRATRAG [L16F] | 2.26
60 | EPAGSLRELGVWRLLLRLRATRAG [S14L] | 1.33
61 | EPAGSLRELGVWRFLLRLRATRAG [S14F] | 2.14
62 | EPAGSLRELGVWRELLRLRATRAG [S14E] | 2.47
63 | EPAGSLRELGVWRPLLRLRATRAG [S14P] | 2.98
64 | EPAGSLRELGVWRMLLRLRATRAG [S14M] | 2.41
65 | EPAGSLRELGVWRDLLRLRATRAG [S14D] | 1.56
66 | EPAGSLRELGVWRKLLRLRATRAG [S14K] | 1.96
67 | EPAGSLRELGVWRQLLRLRATRAG [S14Q] | 2.12
68 | EPAGSLRELGVWRRLLRLRATRAG [S14R] | 1.91
69 | EPAGSLRELGVWRVLLRLRATRAG [S14V] | 1.02
70 | EPAGSLRELGVWRALLRLRATRAG [S14A] | 1.66
71 | EPAGSLRELGVWRWLLRLRATRAG [S14W] | 2.5
72 | EPAGSLRELGVWRGLLRLRATRAG [S14G] | 1.42

Row | Variant | protein stability index
73 | EPAGSLRELGVWRSLLRLRATRCG [A23C] | 1.7
74 | EPAGSLRELGVWRSLLRLRATRHG [A23H] | 2.05
75 | EPAGSLRELGVWRSLLRLRATRFG [A23F] | 1.07
76 | EPAGSLRELGVWRSLLRLRATRMG [A23M] | 1.62
77 | EPAGSLRELGVWRSLLRLRATRPG [A23P] | 2.47
78 | EPAGSLRELGVWRSLLRLRATRKG [A23K] | 2.94
79 | EPAGSLRELGVWRSLLRLRATRQG [A23Q] | 2.23
80 | EPAGSLRELGVWRSLLRLRATRLG [A23L] | 2.2
81 | EPAGSLRELGVWRSLLRLRATRTG [A23T] | 2.29
82 | EPAGSLRELGVWRSLLRLRATRWG [A23W] | 2.28
83 | EPAGSLRELGVWRSLLRLRATRRG [A23R] | 3.33
84 | EPAGSLRELGVWRSLLRLRATRYG [A23Y] | 2.75
85 | EPAGSLRELGVWHSLLRLRATRAG [R13H] | 2.86
86 | EPAGSLRELGVWPSLLRLRATRAG [R13P] | 2.55
87 | EPAGSLRELGVWQSLLRLRATRAG [R13Q] | 2.56
88 | EPAGSLRELGVWFSLLRLRATRAG [R13F] | 1.81
89 | EPAGSLRELGVWYSLLRLRATRAG [R13Y] | 1.91
90 | EPAGSLRELGVWTSLLRLRATRAG [R13T] | 2.05
91 | EPAGSLRELGVWDSLLRLRATRAG [R13D] | 2.62
92 | EPAGSLRELGVWRSLLRLRAFRAG [T21F] | 1.96
93 | EPAGSLRELGVWRSLLRLRAKRAG [T21K] | 2.97
94 | EPAGSLRELGVWRSLLRLRAIRAG [T21I] | 2.84
